These results are taken from article doi:10.1101/2021.11.12.468217 (bioRxiv, 2021).

Substitutions are numbered along the chain they refer to. Numbers in names are those of the source.

The target in data set [1] is T1, DesKC_H188E, DesKC trapped in the phosphotransferase state (Bacillus subtilis, UniProt O34757, H188E).
T1 sequence: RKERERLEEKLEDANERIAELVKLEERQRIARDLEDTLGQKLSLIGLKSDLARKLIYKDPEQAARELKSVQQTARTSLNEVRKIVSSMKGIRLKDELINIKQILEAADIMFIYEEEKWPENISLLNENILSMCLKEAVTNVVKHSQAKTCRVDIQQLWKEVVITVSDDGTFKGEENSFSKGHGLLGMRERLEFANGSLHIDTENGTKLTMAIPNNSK
Nature of the data set: crystal structure.

Data set [2] concerns the molecule itself.
The data set “SEC” concerns the molecule itself. Nature of the data set: SEC. (In general: In gel filtration, larger molecules generally elute earlier.)

B1: DesR_REC-Q10A, receiver domain of DesR with Q10A, as crystallised with DesKC_H188E (domain or fragment)
chain: MISIFIAEDAQMLLGALGSLLNLEDDMEVVGKGTTGQDAVDFVKKRQPDVCIMDIEMPGKTGLEAAEELKDTGCKIIILTTFARPGYFQRAIKAGVKGYLLKDSPSEELANAIRSVMNGKRIYAPELMEDLYSEA
B1: the binding result in data set [1] is reported as “binds”.

B2: Phosphorylated DesR_REC-Q10A (domain or fragment)
chain: B1 chain
With B2, in data set [2], the Kd – broadly, a measure of binding affinity in units of concentration – came out at 1.44 µM and the “fold increase of the KD of dimerization against wild type P~RR” value is 4 fold.

B3: Phosphorylated DesR-REC (P~DesRREC), wild type (domain or fragment)
chain: B1 chain with A10Q
As to B3, the binding result in the data set “SEC” is “binds”.
